B1: human brain derived neurotrophic factor (ligand, UniProt P23560 129-247, looked up)
chain: HSDPARRGELSVCDSISEWVTAADKKTAVDMSGGTVTVLEKVPVSKGQLKQYFYETKCNPMGYTKEGCRGIDKRHWNSQCRTTQSYVRALTMDSKKRIGWRFIRIDTSCVCTLTIKRGR
B2: rat TrkB extracellular domain expressed with a C-terminal myc-myc-hexahistidine tag (receptor)
chain: CPMSCKCSTTRIWCTEPSPGIVAFPRLEPNSIDPENITEILIANQKRLEIINEDDVEAYVGLKNLTIVDSGLKFVAYKAFLKNGNLRHINFTRNKLTSLSRRHFRHLDLSDLILTGNPFTCSCDIMWLKTLQETKSSPDTQDLYCLNESSKNTPLANLQIPNCGLPSARLAAPNLTVEEGKSVTISCSVGGDPLPTLYWDVGNLVSKHMNETSHTQGSLRITNISSDDSGKQISCVAENLVGEDQDSVNLTVHFAPTITFLESPTSDHHWCIPFTVRGNPKPALQWFYNGAILNESKYICTKIHVTNHTEYHGCLQLDNPTHMNNGDYTLMAKNEYGKDERQISAHFMGRPGVDYETNPNYPEVLYEDWTTPTDIGDTTNKSNEIPSTDVADQTNREHEQKLISEEDLGGEQKLISEEDLHHHHHH
notes: also called rTrkB.mmH; rTRKB.mmH

Assays:
[1] = target: T1, human TrkB expressed on HEK293/SRE-Luc/hTrkB cells (human, UniProt Q16620 32-822); test: cell-based or functional assay
T1 sequence (Q16620 32-822): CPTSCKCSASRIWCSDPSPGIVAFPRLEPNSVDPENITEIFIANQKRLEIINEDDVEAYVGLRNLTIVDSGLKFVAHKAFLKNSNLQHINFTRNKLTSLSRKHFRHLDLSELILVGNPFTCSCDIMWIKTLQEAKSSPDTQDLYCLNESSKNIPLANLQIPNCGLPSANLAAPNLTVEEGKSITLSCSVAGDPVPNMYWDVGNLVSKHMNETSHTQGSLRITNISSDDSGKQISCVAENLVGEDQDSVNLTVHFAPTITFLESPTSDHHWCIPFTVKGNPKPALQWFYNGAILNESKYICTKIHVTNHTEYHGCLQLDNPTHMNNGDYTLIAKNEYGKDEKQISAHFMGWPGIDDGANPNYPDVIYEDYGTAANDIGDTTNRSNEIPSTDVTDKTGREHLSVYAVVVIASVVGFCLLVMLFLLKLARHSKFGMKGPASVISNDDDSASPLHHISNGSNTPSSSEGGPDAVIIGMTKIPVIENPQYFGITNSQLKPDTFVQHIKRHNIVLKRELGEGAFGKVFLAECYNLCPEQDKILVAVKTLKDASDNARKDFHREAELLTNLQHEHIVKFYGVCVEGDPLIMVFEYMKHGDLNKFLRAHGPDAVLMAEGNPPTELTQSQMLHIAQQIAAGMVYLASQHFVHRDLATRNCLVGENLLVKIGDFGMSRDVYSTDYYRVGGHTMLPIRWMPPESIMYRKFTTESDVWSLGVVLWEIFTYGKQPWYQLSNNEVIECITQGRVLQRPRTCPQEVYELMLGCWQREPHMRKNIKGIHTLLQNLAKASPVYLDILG

[2] = target: T2, mouse TrkB extracellular domain fused to the transmembrane and cytoplasmic domains of human TrkB, expressed … (mouse; human, UniProt Q16620 431-822, limits assumed); test: cell-based or functional assay
T2 sequence (Q16620 other isoform, or with tags, fused parts or gaps limits assumed, form in doubt): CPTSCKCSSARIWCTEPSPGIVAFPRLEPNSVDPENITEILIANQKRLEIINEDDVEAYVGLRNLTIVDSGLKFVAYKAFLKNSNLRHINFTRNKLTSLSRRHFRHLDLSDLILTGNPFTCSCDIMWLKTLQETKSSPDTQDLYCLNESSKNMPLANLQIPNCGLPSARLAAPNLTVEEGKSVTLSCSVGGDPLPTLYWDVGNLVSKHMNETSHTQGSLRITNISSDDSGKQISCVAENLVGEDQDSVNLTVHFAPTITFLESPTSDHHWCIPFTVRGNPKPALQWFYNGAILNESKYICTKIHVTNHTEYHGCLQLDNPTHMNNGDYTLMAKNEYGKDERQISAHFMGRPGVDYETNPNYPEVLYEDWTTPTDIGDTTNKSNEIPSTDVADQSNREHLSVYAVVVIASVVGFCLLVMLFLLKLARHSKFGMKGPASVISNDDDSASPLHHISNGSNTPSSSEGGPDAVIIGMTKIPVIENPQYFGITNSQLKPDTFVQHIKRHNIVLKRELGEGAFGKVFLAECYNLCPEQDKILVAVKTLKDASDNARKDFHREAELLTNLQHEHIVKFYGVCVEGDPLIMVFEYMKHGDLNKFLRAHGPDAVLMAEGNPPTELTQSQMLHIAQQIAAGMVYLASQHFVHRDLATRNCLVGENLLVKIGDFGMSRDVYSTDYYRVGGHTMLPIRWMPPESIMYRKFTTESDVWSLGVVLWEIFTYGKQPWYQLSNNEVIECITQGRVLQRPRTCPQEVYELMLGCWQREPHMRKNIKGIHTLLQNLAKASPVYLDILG

[3] = target: T1, human TrkB expressed on …; test: cell-based or functional assay; remark: listed apart in the source
[4] = target: T2, mouse TrkB extracellular domain fused …; test: cell-based or functional assay; remark: listed apart in the source
[5] = target: B1; test: ELISA, dose-response of TrkB on plate-coated BDNF
Excerpt: FIG. 5. Consists of FIG. 5A and FIG. 5B which show the ability of anti-mouse TrkB monoclonal antibodies to block interaction between mouse or rat TrkB and its ligand BDNF (Brain Derived Neurotrophic Factor). ELISA-based methods were used to assess the binding of (FIG. 5A with two graphs) mouse TrkB.hFc and (FIG. 5B with two graphs) rat TrkB.mmh to plate coated BDNF in presence of a range of concentrations of Anti-mouse TrkB and isotype control mAbs. […] Molarity (M) indicates antibody concentration for mAbs. Error bars represent Standard Deviation.
(§1) Experiments were carried out using the following procedure. Human BDNF was coated at a concentration of 0.5 μg/mL (for blocking mouse TrkB.hFc interaction) or 0.3 μg/mL (for blocking rat TrkB.mmh interaction) in PBS on 96-well microtiter plate and incubated overnight at 4° C. […] In a 96-well dilution plate, 850 pM mouse TrkB.hFc or rat TrkB.mmh was mixed with the three-fold serially diluted anti-mouse TrkB antibodies and control antibody. The final antibody concentrations ranged from 1.69 pM to 100 nM. The protein-antibody mix was incubated at room temperature (RT) for 1 hour. […] Plate-bound mouse TrkB.hFc was detected with HRP-conjugated goat anti-human Fcγ fragment specific antibody (Jackson Immunoresearch) and rat TrkB.mmh was detected with HRP-conjugated anti-histidine antibody (Qiagen). […]

[6] = target: B1; test: ELISA: dose curve of rat TrkB.mmh binding to plate-coated BDNF, absorbance 450 nm
Procedure: as §1, with “hour. The pre-bound mix was then transferred in duplicates to microtiter plates coated with BDNF.” for “hour.”
The absorbance at 450 nm for each well was recorded and plotted as a function of the concentration of antibody. Data was analyzed in GraphPad Prism software using a four-parameter logistic equation over an 11-point dose response curve and IC₅₀ values were calculated. […] Percent blockade at maximum concentration of the antibody tested was calculated as an indicator of the ability of the antibodies to block the binding of TrkB to BDNF on the plate relative to the baseline of the assay. […]

[7] = target: T3, mouse TrkB extracellular domain expressed with a C-terminal myc-myc-hexahistidine tag (mouse, UniProt P15209 32-429); test: SPR Biacore T200, mAb captured (anti-mFc), 25C
T3 construct: also called mTrkB.mmH; mTRKB.mmH
Procedure: (§2) Equilibrium dissociation constants (KD values) for TrkB binding to purified anti-TrkB monoclonal antibodies were determined using a real-time surface plasmon resonance biosensor using a Biacore T200 instrument. All binding studies were performed in 10 mM Hepes pH 7.4, 150 mM NaCl, 3 mM EDTA, and 0.05% v/v Surfactant Tween-20 (HBS-ET running buffer) at 25° C. The Biacore sensor surface was first derivatized by amine coupling with rabbit anti-mouse Fc polyclonal antibody (GE Healthcare #BR-1008-38) to capture anti-TrkB monoclonal antibodies. Binding studies were performed on the following TrkB reagents; human TrkB extracellular domain expressed with a C-terminal myc-myc-hexahistidine tag (hTrkB.mmH; SEQ ID NO: 76; NP_001018074.1), mouse TrkB extracellular domain expressed with a C-terminal myc-myc-hexahistidine tag (mTRKB.mmH; SEQ ID NO: 79; NP_001020245), and rat TrkB extracellular domain expressed with a C-terminal myc-myc-hexahistidine tag (rTRKB.mmH; SEQ ID NO: 84; XP_002721319.1). […] Kinetic association (kₐ) and dissociation (kd) rate constants were determined by fitting the real-time binding sensorgrams to a 1:1 binding model with mass transport limitation using Scrubber 2.0c curve-fitting software. Binding dissociation equilibrium constants (KD) and dissociative half-lives (t½) were calculated from the kinetic rate constants as: […]

[8] = target: B2; test: SPR Biacore T200, mAb captured (anti-mFc), 25C
Procedure: as §2

[9] = target: T4, human TrkB extracellular domain expressed with a C-terminal myc-myc-hexahistidine tag (human, UniProt Q16620 32-430); test: SPR Biacore T200, mAb captured (anti-mFc), 25C
T4 construct: also called hTrkB.mmH; hTRKB.mmH
Procedure: as §2

mouse TrkB.hFc [10] = target: T5, mouse TrkB.hFc (mouse); test: BLI Octet, captured mTrkB.hFc, 300 nM mAb, no ligand
T5 construct: also called mTrkB.hFc; mTrkB-hFc
T5 sequence (chain, as listed by the source limits assumed): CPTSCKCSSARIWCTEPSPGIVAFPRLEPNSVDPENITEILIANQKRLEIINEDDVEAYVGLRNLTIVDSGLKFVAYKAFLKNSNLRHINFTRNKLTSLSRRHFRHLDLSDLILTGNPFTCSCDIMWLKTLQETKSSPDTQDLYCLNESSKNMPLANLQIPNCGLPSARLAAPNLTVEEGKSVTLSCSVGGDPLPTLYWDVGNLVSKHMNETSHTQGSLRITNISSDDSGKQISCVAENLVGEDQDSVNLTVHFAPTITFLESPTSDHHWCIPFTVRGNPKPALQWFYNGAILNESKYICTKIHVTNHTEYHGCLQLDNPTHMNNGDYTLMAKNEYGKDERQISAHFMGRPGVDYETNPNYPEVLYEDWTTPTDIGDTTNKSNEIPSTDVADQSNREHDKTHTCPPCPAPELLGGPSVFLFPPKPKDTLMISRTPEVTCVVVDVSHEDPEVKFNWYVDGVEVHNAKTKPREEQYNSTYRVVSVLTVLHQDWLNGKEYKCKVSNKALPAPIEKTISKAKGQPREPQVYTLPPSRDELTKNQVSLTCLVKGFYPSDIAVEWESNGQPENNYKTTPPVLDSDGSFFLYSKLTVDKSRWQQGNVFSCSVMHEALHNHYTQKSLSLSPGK
Procedure: (§3) Blocking of anti-human TrkB or anti-mouse TrkB antibodies from binding to TrkB by BDNF or NT-4 was evaluated using a real-time bio-layer interferometry (BLI) based Octet HTX instrument. The entire study was performed in 10 mM HEPES pH 7.4, 300 mM NaCl, 3 mM EDTA, 1 mg/mL BSA, 0.02% NaN3 and 0.05% v/v Surfactant Tween-20 (HBS-EBT running buffer) at 25° C. All the samples were dispensed in a 384 tilted well plate and the plate was placed on the orbital shaker with the shake speed of 1000 rpm. hTrkB.mFc was captured on anti-mFc (AMC) Octet sensors while hTrkB.hFc or mTrkB.hFc were captured on anti-hFc (AHC) Octet sensors by dipping in wells containing 10 μg/mL of TrkB reagents for 2 minutes. hTrkB.mFc or hTrkB.hFc captured Octet biosensors were saturated by dipping in wells containing 20 nM of BDNF, hNT-4, or mNT-4 for 2 minutes followed by dipping Octet biosensors in wells containing 300 nM of different TrkB mAbs for 4 minutes. Binding of TrkB mAbs to the complex of TrkB and BDNF, hNT-4, or mNT-4 was determined using Scrubber 2.0c analysis software.

mouse TrkB.hFc [11] = target: T5, mouse TrkB.hFc; test: BLI Octet, captured mTrkB.hFc, 300 nM mAb (BDNF run)
Procedure: (§4) Blocking of BDNF or NT-4 from binding to TrkB by anti-human TrkB or anti-mouse TrkB antibodies was evaluated using a real-time bio-layer interferometry (BLI) based Octet HTX instrument. The entire study was performed in 10 mM HEPES pH 7.4, 300 mM NaCl, 3 mM EDTA, 1 mg/mL BSA, 0.02% NaN3 and 0.05% v/v Surfactant Tween-20 (HBS-EBT running buffer) at 25° C. All the samples were dispensed in a 384 tilted well plate and the plate was placed on the orbital shaker with the shake speed of 1000 rpm. hTrkB.mFc was captured on anti-mFc (AMC) Octet sensors while hTrkB.hFc or mTrkB.hFc were captured on anti-hFc (AHC) Octet sensors by dipping in wells containing 10 μg/mL of TrkB reagents for 2 minutes. hTrkB.mFc or hTrkB.hFc captured Octet biosensors were saturated by dipping in wells containing 300 nM of different TrkB mAbs for 4 minutes followed by dipping Octet biosensors in wells containing 20 nM of BDNF, hNT-4, or mNT-4 for 2 minutes. Binding of BDNF, hNT-4, or mNT-4 to the complex of TrkB and different TrkB mAbs was determined using Scrubber 2.0c analysis software.

mouse TrkB.hFc [12] = target: T5, mouse TrkB.hFc; test: BLI Octet, captured mTrkB.hFc, 300 nM mAb (NT-4 run)
Procedure: as §4

mouse TrkB.hFc [13] = target: T5, mouse TrkB.hFc; test: BLI Octet, captured mTrkB.hFc saturated with BDNF, 300 nM mAb
Procedure: as §3

mouse TrkB.hFc [14] = target: T5, mouse TrkB.hFc; test: BLI Octet, captured mTrkB.hFc saturated with mNT-4, 300 nM mAb
Procedure: as §3

[15] = target: B2; test: blocking ELISA, rat TrkB.mmh pre-mixed with mAb, plate-coated BDNF
Procedure: (§5) Experiments were carried out using the following procedure. Human BDNF was coated at a concentration of 0.5 μg/mL (for blocking mouse TrkB.hFc interaction) or 0.3 μg/mL (for blocking rat TrkB.mmh interaction) in PBS on 96-well microtiter plate and incubated overnight at 4° C. […] In a 96-well dilution plate, 850 pM mouse TrkB.hFc or rat TrkB.mmh was mixed with the three-fold serially diluted anti-mouse TrkB antibodies and control antibody. The final antibody concentrations ranged from 1.69 pM to 100 nM. The protein-antibody mix was incubated at room temperature (RT) for 1 hour. The pre-bound mix was then transferred in duplicates to microtiter plates coated with BDNF. A control containing assay buffer alone was included to calculate the baseline of the assay. The ELISA plates were incubated at RT for 1 hour and then washed with plate washing solution. Plate-bound mouse TrkB.hFc was detected with HRP-conjugated goat anti-human Fcγ fragment specific antibody (Jackson Immunoresearch) and rat TrkB.mmh was detected with HRP-conjugated anti-histidine antibody (Qiagen). The plates were incubated with detection antibody for 1 hour at RT and then washed with plate washing solution. The assay plates were developed with TMB colorimetric substrates according to the manufacturer's recommended procedure.
(§6) The absorbance at 450 nm for each well was recorded and plotted as a function of the concentration of antibody. Data was analyzed in GraphPad Prism software using a four-parameter logistic equation over an 11-point dose response curve and IC₅₀ values were calculated. […] Percent blockade at maximum concentration of the antibody tested was calculated as an indicator of the ability of the antibodies to block the binding of TrkB to BDNF on the plate relative to the baseline of the assay. Binding signal of 850 pM mouse or rat TrkB in absence of the antibody was defined as 100% binding or 0% blocking. The baseline signal of assay buffer alone was defined as 0% binding or 100% blocking.

mouse TrkB.hFc [16] = target: T5, mouse TrkB.hFc; test: blocking ELISA, mouse TrkB.hFc pre-mixed with mAb, plate-coated BDNF
Procedure: as §5, §6

Binder: B1
- BDNF EC50 (M), SRE-luciferase [1]: 1e-10 M
- BDNF EC50 (M), SRE-luciferase [2]: 7.4e-11 M
- BDNF EC50 (M), SRE-luciferase (run of the 100 pM BDNF columns) [3]: 1e-10 M
- BDNF EC50 (M), SRE-luciferase (run of the No BDNF columns) [3]: 1.3e-10 M
- BDNF EC50 (M), SRE-luciferase (run of the 100 pM BDNF columns) [4]: 1.1e-10 M
- BDNF EC50 (M), SRE-luciferase (run of the No BDNF columns) [4]: 7.4e-11 M

Binder: B2
- EC50 [5]: 2.2 nM
- EC50 [6]: 2.22 nM

B3: M2aM14178N (antibody, mouse IgG2a, V domains shown)
VH: EVQLVESGGGLVKPGGSLKLSCTASGFTFSSYAMSWVRQTPEKRLEWVANISDGGTYTYYPDNIKGRFTISRDNAKNNLYLQMSHLESEDTAMYYCIRGDVYYVRFAYWGQGTLVTVSA
VL: QAVVTQESALTTSPGETVTLTCRSSTGAVTSSNHANWVQEKPDHLFTGLIGGTNNRAPGVPARFSGSLIGDKAALTITGAQTEDEAIYFCALWHSNHWVFGGGTKLTVLG
notes: Anti-mouse TrkB antibody from hybridoma, mouse IgG2a Fc; also called surrogate anti-mouse TrkB antibody
- Activation (%), SRE-luciferase, 100 pM BDNF [3]: 52%
- Activation (%), SRE-luciferase, No BDNF [3]: 0%
- Activation (%), SRE-luciferase, 100 pM BDNF [4]: 67%
- Activation (%), SRE-luciferase, No BDNF [4]: 76%
- EC50 (M), SRE-luciferase, 100 pM BDNF [4]: 1e-10 M
- EC50 (M), SRE-luciferase, No BDNF [4]: 1.9e-10 M
- 90 nM TrkB.mmH Bound (RU) [7]: 12 RU
- Kd [7]: 2.39 nM
- koff [7]: 0.000247 s⁻¹
- kon [7]: 103000 M⁻¹ s⁻¹
- t½ [7]: 47 min
- 90 nM rTrkB.mmH Bound (RU) [8]: 11 RU
- Kd [8]: 2.56 nM
- koff [8]: 0.00023 s⁻¹
- kon [8]: 90000 M⁻¹ s⁻¹
- t½ [8]: 50 min
- 90nM hTrkB.mmH Bound (RU) [9]: -1 RU
- antibody Binding (nm) (mouse TrkB.hFc [10]): 0.47 nm
- mAb Binding (nm) (mouse TrkB.hFc [11]): 0.47 nm
- mAb Binding (nm) (mouse TrkB.hFc [12]): 0.47 nm
- antibody Binding (nm) (mouse TrkB.hFc [13]): 0.35 nm
- antibody Binding (nm) (mouse TrkB.hFc [14]): 0.41 nm
- % Blockade with 100 nM antibody [15]: 89.5%
- IC50 [15]: 0.184 nM
- % Blockade with 100 nM antibody (mouse TrkB.hFc [16]): 84.4%
- IC50 (mouse TrkB.hFc [16]): 0.426 nM

Reference: US20190161551A1 (Regeneron, published 2019)
